To fix the notation:
B1: GFP-Lpd (Lamellipodin, wild type), Q70E73 Y366F; Y426F; Y456F; Y466F; Y481F; Y510F (protein)
chain: MEQLSDEEIDHGAEEDSDKEDQDLDKMFGAWLGELDKLTQSLDSDKPMEPVKRSPLRQETNMANFSYRFSIYNLNEALNQGETVDLDALMADLCSIEQELSSIGSGNSKRQITETKATQKLPVSRHTLKHGTLKGLSSSSNRIAKPSHASYSLDDVTAQLEQASLSMDEAAQQSVLEDTKPLVTNQHRRTASAGTVSDAEVHSISNSSHSSITSAASSMDSLDIDKVTRPQELDLTHQGQPITEEEQAAKLKAEKIRVALEKIKEAQVKKLVIRVHMSDDSSKTMMVDERQTVRQVLDNLMDKSHCGYSLDWSLVETVSELQMERIFEDHENLVENLLNWTRDSQNKLIFMERIEKYALFKNPQNFLLGKKETAEMADRNKEVLLEECFCGSSVTVPEIEGVLWLKDDGKKSWKKRYFLLRASGIFYVPKGKAKVSRDLVCFLQLDHVNVYYGQDFRNKYKAPTDFCLVLKHPQIQKKSQFIKYLCCDDVRTLHQWVNGIRIAKYGKQLFMNYQEALKRTESAYDWTSLSSSSIKSGSSSSSIPESQSNHSNQSDSGVSDTQPAGHVRSQSIVSSVFSEAWKRGTQLEESSKARMESMNRPYTSLVPPLSPQPKIVTPYTASQPSPPLPPPPPPPPPPPPPPPPPPPPLPSQSAPSAGSAAPMFVKYSTITRLQNASQHSGALFKPPTPPVMQSQSVKPQILVPPNGVVPPPPPPPPPPTPGSAMAQLKPAPCAPSLPQFSAPPPPLKIHQVQHITQVAPPTPPPPPPIPAPLPPQAPPKPLVTIPAPTSTKTVAPVVTQAAPPTPTPPVPPAKKQPAFPASYIPPSPPTPPVPVPPPTLPKQQSFCAKPPPSPLSPVPSVVKQIASQFPPPPTPPAMESQPLKPVPANVAPQSPPAVKAKPKWQPSSIPVPSPDFPPPPPESSLVFPPPPPSPVPAPPPPPPPTASPTPDKSGSPGKKTSKTSSPGGKKPPPTPQRNSSIKSSSGAEHPEPKRPSVDSLVSKFTPPAESGSPSKETLPPPAAPPKPGKLNLSGVNLPGVLQQGCVSAKAPVLSGRGKDSVVEFPSPPSDSDFPPPPPETELPLPPIEIPAVFSGNTSPKVAVVNPQPQQWSKMSVKKAPPPTRPKRNDSTRLTQAEISEQPTMATVVPQVPTSPKSSLSVQPGFLADLNRTLQRKSITRHGSLSSRMSRAEPTATMDDMALPPPPPELLSDQQKAGYGGSHISGYATLRRGPPPAPPKRDQNTKLSRDW
B2: GFP-Lpd (Lamellipodin, wild type), Q70E73 Y366F; Y426F; Y456F; Y466F; Y481F; Y510F; Y513F; Y1226F (protein)
chain: MEQLSDEEIDHGAEEDSDKEDQDLDKMFGAWLGELDKLTQSLDSDKPMEPVKRSPLRQETNMANFSYRFSIYNLNEALNQGETVDLDALMADLCSIEQELSSIGSGNSKRQITETKATQKLPVSRHTLKHGTLKGLSSSSNRIAKPSHASYSLDDVTAQLEQASLSMDEAAQQSVLEDTKPLVTNQHRRTASAGTVSDAEVHSISNSSHSSITSAASSMDSLDIDKVTRPQELDLTHQGQPITEEEQAAKLKAEKIRVALEKIKEAQVKKLVIRVHMSDDSSKTMMVDERQTVRQVLDNLMDKSHCGYSLDWSLVETVSELQMERIFEDHENLVENLLNWTRDSQNKLIFMERIEKYALFKNPQNFLLGKKETAEMADRNKEVLLEECFCGSSVTVPEIEGVLWLKDDGKKSWKKRYFLLRASGIFYVPKGKAKVSRDLVCFLQLDHVNVYYGQDFRNKYKAPTDFCLVLKHPQIQKKSQFIKYLCCDDVRTLHQWVNGIRIAKYGKQLFMNFQEALKRTESAYDWTSLSSSSIKSGSSSSSIPESQSNHSNQSDSGVSDTQPAGHVRSQSIVSSVFSEAWKRGTQLEESSKARMESMNRPYTSLVPPLSPQPKIVTPYTASQPSPPLPPPPPPPPPPPPPPPPPPPPLPSQSAPSAGSAAPMFVKYSTITRLQNASQHSGALFKPPTPPVMQSQSVKPQILVPPNGVVPPPPPPPPPPTPGSAMAQLKPAPCAPSLPQFSAPPPPLKIHQVQHITQVAPPTPPPPPPIPAPLPPQAPPKPLVTIPAPTSTKTVAPVVTQAAPPTPTPPVPPAKKQPAFPASYIPPSPPTPPVPVPPPTLPKQQSFCAKPPPSPLSPVPSVVKQIASQFPPPPTPPAMESQPLKPVPANVAPQSPPAVKAKPKWQPSSIPVPSPDFPPPPPESSLVFPPPPPSPVPAPPPPPPPTASPTPDKSGSPGKKTSKTSSPGGKKPPPTPQRNSSIKSSSGAEHPEPKRPSVDSLVSKFTPPAESGSPSKETLPPPAAPPKPGKLNLSGVNLPGVLQQGCVSAKAPVLSGRGKDSVVEFPSPPSDSDFPPPPPETELPLPPIEIPAVFSGNTSPKVAVVNPQPQQWSKMSVKKAPPPTRPKRNDSTRLTQAEISEQPTMATVVPQVPTSPKSSLSVQPGFLADLNRTLQRKSITRHGSLSSRMSRAEPTATMDDMALPPPPPELLSDQQKAGYGGSHISGFATLRRGPPPAPPKRDQNTKLSRDW
B3: GFP-Lpd (Lamellipodin, wild type), Q70E73 Y426F; Y456F; Y513F; Y1226F (protein)
chain: MEQLSDEEIDHGAEEDSDKEDQDLDKMFGAWLGELDKLTQSLDSDKPMEPVKRSPLRQETNMANFSYRFSIYNLNEALNQGETVDLDALMADLCSIEQELSSIGSGNSKRQITETKATQKLPVSRHTLKHGTLKGLSSSSNRIAKPSHASYSLDDVTAQLEQASLSMDEAAQQSVLEDTKPLVTNQHRRTASAGTVSDAEVHSISNSSHSSITSAASSMDSLDIDKVTRPQELDLTHQGQPITEEEQAAKLKAEKIRVALEKIKEAQVKKLVIRVHMSDDSSKTMMVDERQTVRQVLDNLMDKSHCGYSLDWSLVETVSELQMERIFEDHENLVENLLNWTRDSQNKLIFMERIEKYALFKNPQNYLLGKKETAEMADRNKEVLLEECFCGSSVTVPEIEGVLWLKDDGKKSWKKRYFLLRASGIFYVPKGKAKVSRDLVCFLQLDHVNVYYGQDFRNKYKAPTDYCLVLKHPQIQKKSQYIKYLCCDDVRTLHQWVNGIRIAKYGKQLYMNFQEALKRTESAYDWTSLSSSSIKSGSSSSSIPESQSNHSNQSDSGVSDTQPAGHVRSQSIVSSVFSEAWKRGTQLEESSKARMESMNRPYTSLVPPLSPQPKIVTPYTASQPSPPLPPPPPPPPPPPPPPPPPPPPLPSQSAPSAGSAAPMFVKYSTITRLQNASQHSGALFKPPTPPVMQSQSVKPQILVPPNGVVPPPPPPPPPPTPGSAMAQLKPAPCAPSLPQFSAPPPPLKIHQVQHITQVAPPTPPPPPPIPAPLPPQAPPKPLVTIPAPTSTKTVAPVVTQAAPPTPTPPVPPAKKQPAFPASYIPPSPPTPPVPVPPPTLPKQQSFCAKPPPSPLSPVPSVVKQIASQFPPPPTPPAMESQPLKPVPANVAPQSPPAVKAKPKWQPSSIPVPSPDFPPPPPESSLVFPPPPPSPVPAPPPPPPPTASPTPDKSGSPGKKTSKTSSPGGKKPPPTPQRNSSIKSSSGAEHPEPKRPSVDSLVSKFTPPAESGSPSKETLPPPAAPPKPGKLNLSGVNLPGVLQQGCVSAKAPVLSGRGKDSVVEFPSPPSDSDFPPPPPETELPLPPIEIPAVFSGNTSPKVAVVNPQPQQWSKMSVKKAPPPTRPKRNDSTRLTQAEISEQPTMATVVPQVPTSPKSSLSVQPGFLADLNRTLQRKSITRHGSLSSRMSRAEPTATMDDMALPPPPPELLSDQQKAGYGGSHISGFATLRRGPPPAPPKRDQNTKLSRDW

The record followed here is article PMC5031503.

The target of the test is Myc-tagged Scar/WAVE complex (Myc-Pir121, Myc-Nap1, Myc-Abi1d, Myc-WAVE2), Q96F07;Q9Y2A7;Q9Y6W5. In words: co-immunoprecipitation, quantified western blot band intensities. To be noted: chain shown with the change; HEK293FT cells; n=4; Scar/WAVE2 normalized against the immunoprecipitated Lpd; parent: est. 100; read off a plot. (In western blotting, separated proteins are transferred to a membrane and probed.)
Myc-tagged Scar/WAVE complex (Myc-Pir121, Myc-Nap1, Myc-Abi1d, Myc-WAVE2), Q96F07;Q9Y2A7;Q9Y6W5, sequence (chain, as listed by the source, chain 1 of 3): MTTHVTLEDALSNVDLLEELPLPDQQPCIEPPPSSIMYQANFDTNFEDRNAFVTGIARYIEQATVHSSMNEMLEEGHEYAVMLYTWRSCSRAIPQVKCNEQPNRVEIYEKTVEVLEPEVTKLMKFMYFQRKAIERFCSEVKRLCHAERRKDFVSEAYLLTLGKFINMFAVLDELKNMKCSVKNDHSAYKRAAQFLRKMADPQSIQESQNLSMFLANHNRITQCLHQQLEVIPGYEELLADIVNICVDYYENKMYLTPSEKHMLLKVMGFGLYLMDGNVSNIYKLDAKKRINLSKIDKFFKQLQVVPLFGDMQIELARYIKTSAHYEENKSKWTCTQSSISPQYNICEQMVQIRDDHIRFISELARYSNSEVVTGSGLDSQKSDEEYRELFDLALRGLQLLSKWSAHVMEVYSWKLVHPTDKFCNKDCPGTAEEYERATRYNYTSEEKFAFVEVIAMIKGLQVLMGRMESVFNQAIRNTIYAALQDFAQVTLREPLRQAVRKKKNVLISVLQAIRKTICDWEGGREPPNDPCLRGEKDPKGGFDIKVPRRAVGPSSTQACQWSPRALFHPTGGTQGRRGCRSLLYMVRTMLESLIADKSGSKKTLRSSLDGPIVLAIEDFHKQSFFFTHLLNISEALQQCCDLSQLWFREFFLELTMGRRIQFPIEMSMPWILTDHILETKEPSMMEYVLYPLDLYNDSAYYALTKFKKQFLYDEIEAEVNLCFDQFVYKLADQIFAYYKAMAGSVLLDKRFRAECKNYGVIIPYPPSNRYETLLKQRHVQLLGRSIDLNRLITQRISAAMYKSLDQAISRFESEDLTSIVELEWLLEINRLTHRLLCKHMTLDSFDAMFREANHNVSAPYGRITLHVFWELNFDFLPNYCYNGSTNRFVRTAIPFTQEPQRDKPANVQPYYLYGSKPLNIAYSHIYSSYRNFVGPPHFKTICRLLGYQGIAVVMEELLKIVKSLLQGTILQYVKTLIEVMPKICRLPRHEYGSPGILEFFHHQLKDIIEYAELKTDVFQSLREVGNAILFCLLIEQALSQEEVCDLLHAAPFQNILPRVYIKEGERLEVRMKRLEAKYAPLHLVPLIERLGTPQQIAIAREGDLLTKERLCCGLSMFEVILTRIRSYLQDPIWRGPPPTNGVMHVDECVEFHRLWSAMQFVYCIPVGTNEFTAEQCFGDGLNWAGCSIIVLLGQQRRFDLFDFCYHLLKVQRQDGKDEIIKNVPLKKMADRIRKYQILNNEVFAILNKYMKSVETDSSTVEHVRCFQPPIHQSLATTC
Myc-tagged Scar/WAVE complex (Myc-Pir121, Myc-Nap1, Myc-Abi1d, Myc-WAVE2), Q96F07;Q9Y2A7;Q9Y6W5, sequence (chain, as listed by the source, chain 2 of 3): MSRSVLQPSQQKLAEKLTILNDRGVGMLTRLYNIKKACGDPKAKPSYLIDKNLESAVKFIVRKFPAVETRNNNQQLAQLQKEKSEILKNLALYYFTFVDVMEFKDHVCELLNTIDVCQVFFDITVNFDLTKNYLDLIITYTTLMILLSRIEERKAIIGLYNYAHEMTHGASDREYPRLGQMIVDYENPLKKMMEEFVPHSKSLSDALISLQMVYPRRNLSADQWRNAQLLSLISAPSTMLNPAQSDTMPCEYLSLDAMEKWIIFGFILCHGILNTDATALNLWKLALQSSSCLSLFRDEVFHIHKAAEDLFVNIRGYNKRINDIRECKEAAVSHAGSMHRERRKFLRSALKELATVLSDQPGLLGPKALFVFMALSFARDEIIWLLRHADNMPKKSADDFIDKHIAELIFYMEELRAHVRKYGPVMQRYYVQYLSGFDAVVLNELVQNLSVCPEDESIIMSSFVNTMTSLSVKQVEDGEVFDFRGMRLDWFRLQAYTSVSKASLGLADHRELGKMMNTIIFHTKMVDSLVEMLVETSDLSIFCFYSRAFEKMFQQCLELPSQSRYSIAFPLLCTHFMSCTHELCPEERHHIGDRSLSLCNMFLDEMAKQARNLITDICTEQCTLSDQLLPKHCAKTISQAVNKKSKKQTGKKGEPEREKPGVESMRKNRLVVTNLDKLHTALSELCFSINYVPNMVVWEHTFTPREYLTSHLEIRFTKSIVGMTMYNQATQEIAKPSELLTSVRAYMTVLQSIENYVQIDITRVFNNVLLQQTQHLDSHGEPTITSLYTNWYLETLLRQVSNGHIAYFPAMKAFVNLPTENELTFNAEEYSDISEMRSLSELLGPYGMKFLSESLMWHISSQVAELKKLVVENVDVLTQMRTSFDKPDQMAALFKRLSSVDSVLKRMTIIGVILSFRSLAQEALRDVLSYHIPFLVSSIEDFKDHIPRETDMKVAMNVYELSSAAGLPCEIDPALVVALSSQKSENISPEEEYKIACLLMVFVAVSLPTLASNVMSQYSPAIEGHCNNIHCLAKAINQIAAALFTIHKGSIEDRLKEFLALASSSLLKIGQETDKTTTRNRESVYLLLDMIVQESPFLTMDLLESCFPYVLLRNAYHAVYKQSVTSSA
Myc-tagged Scar/WAVE complex (Myc-Pir121, Myc-Nap1, Myc-Abi1d, Myc-WAVE2), Q96F07;Q9Y2A7;Q9Y6W5, sequence (chain, as listed by the source, chain 3 of 3): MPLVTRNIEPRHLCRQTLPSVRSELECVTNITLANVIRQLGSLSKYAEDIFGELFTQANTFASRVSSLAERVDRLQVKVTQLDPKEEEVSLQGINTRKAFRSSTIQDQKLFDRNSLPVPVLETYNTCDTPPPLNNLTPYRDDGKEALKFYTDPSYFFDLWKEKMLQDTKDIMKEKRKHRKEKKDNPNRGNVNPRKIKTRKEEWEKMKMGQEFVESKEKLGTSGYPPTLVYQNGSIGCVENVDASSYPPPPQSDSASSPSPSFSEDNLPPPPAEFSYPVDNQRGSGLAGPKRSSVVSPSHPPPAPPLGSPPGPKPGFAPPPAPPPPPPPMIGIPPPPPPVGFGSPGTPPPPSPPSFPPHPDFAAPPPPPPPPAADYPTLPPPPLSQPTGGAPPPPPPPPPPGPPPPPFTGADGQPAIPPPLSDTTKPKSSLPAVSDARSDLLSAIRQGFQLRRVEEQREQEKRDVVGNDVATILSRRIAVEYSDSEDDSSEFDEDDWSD
Consider B1, for which the percent of parent (% co-IP Lpd-WAVE2) was 39.
Regarding B2, the percent of parent (% co-IP Lpd-WAVE2) amounted to 31.
The result for B3 reads 41.
